Data from paper doi:10.1101/2024.05.22.595265 (bioRxiv, 2024).
Values belong to the binder of their own block, whether it stands above or below them.

Target: T1, Aurora-A kinase domain 122-403 C290A,C393A (UniProt O14965 122-403, C290A | C393A)
T1 construct: Aurora-A Ser/Thr kinase, kinase domain, residues 122-403
T1 sequence (looked up): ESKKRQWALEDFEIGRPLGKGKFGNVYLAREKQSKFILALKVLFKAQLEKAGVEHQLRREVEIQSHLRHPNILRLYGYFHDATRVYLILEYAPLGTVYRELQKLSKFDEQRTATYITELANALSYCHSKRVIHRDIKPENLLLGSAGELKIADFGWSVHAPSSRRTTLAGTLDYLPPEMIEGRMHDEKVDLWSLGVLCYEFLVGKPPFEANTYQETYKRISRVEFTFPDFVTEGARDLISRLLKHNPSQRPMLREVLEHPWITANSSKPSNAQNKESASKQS
Test: NMR titration; 1H-15N HSQC of 15N-labelled N-myc constructs (150-315 uM); aliquots of Aurora-A (305-400 uM) added up to [N-myc]:[Aurora-A] 1:1.4; 20 mM (K/H)3PO4 pH 6.5, 150 mM NaCl, 2 mM beta-mercaptoethanol, 1% glycerol, 5 mM MgCl2, 5 mM ADP
Conditions: both partners purified

binding result: binds
B1: N-myc transactivation domain, N-myc 1-137 (domain or fragment)
chain: GAMMPSCSTSTMPGMICKNPDLEFDSLQPCFYPDEDDFYFGGPDSTPPGEDIWKKFELLPTPPLSPSRGFAEHSSEPPSWVTEMLLENELWGSPAEEDAFGLGGLGGLTPNPVILQDCMWSGFSAREKLERAVSEKLQHG
notes: 15N-labelled for the NMR titration; also called N-myc TAD; N-myc_(1-137) TAD; not shown: His-NusA, N-terminal, cleaved

binding result: binds
B2: N-myc 64-137 (domain or fragment)
chain: GAMGSRGFAEHSSEPPSWVTEMLLENELWGSPAEEDAFGLGGLGGLTPNPVILQDCMWSGFSAREKLERAVSEKLQHG
notes: N-myc residues 64-137 (AIH and MBII); 15N-labelled; not shown: His-NusA, N-terminal, cleaved
